The target of data set [1] is T1, KsdD3 (3-ketosteroid-∆^1-dehydrogenase) (Pimelobacter simplex, UniProt P77815, W299A).
T1 construct: gene KR76_27115; full-length, N-terminal His6 tag (pET28a NdeI/EcoRI), E. coli BL21(DE3), Ni-NTA purified
The data set is described as follows: PMS/DCPIP reduction at […] nm, Michaelis-Menten fit. In kind it is biochemical. To be noted: 50 mM Tris-HCl pH 7.5, 30 °C, 1.5 mM PMS, 40 µM DCPIP, 2% methanol.

Data set [2] addresses T2, KsdD3 (3-ketosteroid-∆^1-dehydrogenase) (Pimelobacter simplex, UniProt P77815).
T2 construct: gene KR76_27115; full-length, N-terminal His6 tag (pET28a NdeI/EcoRI), E. coli BL21(DE3), Ni-NTA purified
As to the kind of experiment: PMS/DCPIP reduction at […] nm, Michaelis-Menten fit. It counts as biochemical. Conditions: 50 mM Tris-HCl pH 7.5, 30 °C, 1.5 mM PMS, 40 µM DCPIP, 2% methanol.

Substrate in data set [3]: C[C@]12CCC(=O)C=C1CC[C@@H]1[C@@H]2C(=O)C[C@@]2(C)[C@H]1CC[C@]2(O)C(=O)CO
The data set is described as follows: purified protein. Conditions: 50 mM Tris-HCl pH 7.5, 30 °C, 1.5 mM PMS, 40 µM DCPIP, 2% methanol.

Substrate in data set [4]: C[C@]12CCC(=O)C=C1CC[C@@H]1[C@@H]2CC[C@]2(C)C(=O)CC[C@@H]12
The data set is described as follows: purified protein. It counts as biochemical, Pimelobacter simplex. To be noted: pH 7.5; 30.0 °C.

Substrate in data set [5]: CC(=O)[C@@]1(O)CC[C@H]2[C@@H]3CCC4=CC(=O)CC[C@]4(C)[C@H]3C(=O)C[C@@]21C
As to the kind of experiment: purified protein. It counts as biochemical, Pimelobacter simplex. To be noted: 50 mM Tris-HCl pH 7.5, 30 °C, 1.5 mM PMS, 40 µM DCPIP, 2% methanol.

Substrate in data set [6]: CC(=O)[C@H]1CC[C@H]2[C@@H]3CCC4=CC(=O)CC[C@]4(C)[C@H]3CC[C@]12C
As to the kind of experiment: purified protein. It counts as biochemical, Pimelobacter simplex. To be noted: 50 mM Tris-HCl pH 7.5, 30 °C, 1.5 mM PMS, 40 µM DCPIP, 2% methanol.

Substrate in data set [7]: CC(=O)[C@@]12O[C@@H]1C[C@H]1[C@@H]3CCC4=CC(=O)CC[C@]4(C)[C@H]3[C@H](O)C[C@@]12C
As to the kind of experiment: purified protein. To be noted: 50 mM Tris-HCl pH 7.5, 30 °C, 1.5 mM PMS, 40 µM DCPIP, 2% methanol. It counts as biochemical, Pimelobacter simplex.

Substrate in data set [8]: C[C@]12CCC(=O)C=C1CC[C@@H]1[C@@H]2CC[C@@]2(C)[C@H]1CC[C@]2(C)O
As to the kind of experiment: purified protein. It counts as biochemical, Pimelobacter simplex. To be noted: pH 7.5; 30.0 °C.

Substrate in data set [9]: CC(=O)OCC(=O)[C@@]1(O)CC[C@H]2[C@@H]3CCC4=CC(=O)CC[C@]4(C)[C@H]3C(=O)C[C@@]21C
The data set is described as follows: purified protein. In kind it is biochemical, Pimelobacter simplex. Conditions: 50 mM Tris-HCl pH 7.5, 30 °C, 1.5 mM PMS, 40 µM DCPIP, 2% methanol.

Substrate in data set [10]: C[C@]12CC[C@H]3[C@@H](CCC4=CC(=O)CC[C@@]43C)[C@@H]1CC[C@@H]2O
As to the kind of experiment: purified protein. In kind it is biochemical, Pimelobacter simplex. To be noted: pH 7.5; 30.0 °C.

Substrate in data set [11]: C[C@]12CCC(=O)C=C1CC[C@@H]1[C@@H]2CC[C@]2(C)C(=O)CC[C@@H]12
The data set is described as follows: purified protein. Conditions: 50 mM Tris-HCl pH 7.5, 30 °C, 1.5 mM PMS, 40 µM DCPIP, 2% methanol.

The source of these data is paper PMC6130075, “Engineering of 3-ketosteroid-∆^1-dehydrogenase based site-directed saturation mutagenesis for efficient biotransformation of steroidal substrates” (Microbial Cell Factories, 2018).

By Km is commonly meant the concentration of substrate that gives half-maximal velocity. In the case of `C[C@]12CCC(=O)C=C1CC[C@H]1[C@@H]3CCC(=O)[C@@]3(C)CC[C@@]12O` [9α-OH-AD, 9α-hydroxy-4-androstene-3,17-dione], the Km in data set [1] worked out at 68.5 ± 7 µM; in data set [2], 145 ± 4.4 µM.

B1: KsdD3 (3-ketosteroid-∆^1-dehydrogenase) (Pimelobacter simplex; W299A) (protein)
chain: MDWAEEYDVLVAGSGAGGMAGTYTAAREGLSVCLVEAGDKFGGTTAYSGGGGAWFPANPVLLRAGTDDTIEDALEYYRAVVGDRTPADLQETYVRGGAGLVAYLEEDDHFSFESYPWPDYFGDAPKARRDGQRHIIPTPLPVPSAPELREVVRGPLDNDRLGTPQPDDLFIGGRALVARFLTALATYPHATLVRETALAELVVEDGVVVGAIVETDGVRRAIRARRGVLLAAGGFEANDELRQKYGVPGVARDTMGPPTNVGAAHQAAIAVGADTDLMGEAWWSPGLTHPDGRSAFALAFTGGIFVDGAGRRFVNESAPYDRLGRAVIDHLTEGGVTPRYWMVYDHKEGSIPPVRATNVSMVDEEQYVAAGLWHTADTLPELAALIGVPADALVATVARFNELVADGYDADFGRGGEAYDRFFSGGEPPLVSIDEGPFHAAAFGISDLGTKGGLRTDTSARVLTADGTPIGGLYAAGNTMAAPSGTTYPGGGNPIGTSMLFSHLAVRHMGTEDAR
notes: full-length, N-terminal His6 tag (pET28a NdeI/EcoRI), E. coli BL21(DE3), Ni-NTA purified
In general, kcat refers to the number of substrate molecules converted per active site and unit of time at saturation. A word on the kcat/Km: it is the turnover number divided by the Michaelis constant. On to B1, for which the Km in the data set “purified protein [3]” was found to be 42.85 ± 3.3 µM; in the data set “purified protein [4]”, 34.89 ± 2.5 µM; in the data set “purified protein [5]” it was 46.85 ± 0.9 µM; in “purified protein [6]”, 40.37 ± 3.7 µM; in “purified protein [7]”, 149.15 ± 4.6 µM; in the data set “purified protein [8]” it was 44.63 ± 2.8 µM. The Km is 75.93 ± 3.8 µM in “purified protein [9]” and 33.25 ± 4.2 µM in “purified protein [10]”. The kcat stood at 78 s⁻¹ in “purified protein [3]”; 62.1 ± 6.1 s⁻¹ in the data set “purified protein [5]”; 87.1 ± 4.2 s⁻¹ in the data set “purified protein [6]”; 33.6 ± 2.1 s⁻¹ in “purified protein [7]”; 47.3 ± 1.5 s⁻¹ in the data set “purified protein [9]”. In addition, the kcat/Km in “purified protein [3]” stood at 1.82e+06 M⁻¹ s⁻¹; in the data set “purified protein [4]”, 3.28e+06 M⁻¹ s⁻¹; in “purified protein [5]” it was 1.32e+06 M⁻¹ s⁻¹; in the data set “purified protein [6]”, 2.16e+06 M⁻¹ s⁻¹; in “purified protein [7]”, 230000 M⁻¹ s⁻¹; in “purified protein [8]”, 1.66e+06 M⁻¹ s⁻¹. The kcat/Km in “purified protein [9]” turned out to be 620000 M⁻¹ s⁻¹; in “purified protein [10]” it was 3.7e+06 M⁻¹ s⁻¹.

B2: KsdD3 (3-ketosteroid-∆^1-dehydrogenase) (Pimelobacter simplex; W299G) (protein)
chain: MDWAEEYDVLVAGSGAGGMAGTYTAAREGLSVCLVEAGDKFGGTTAYSGGGGAWFPANPVLLRAGTDDTIEDALEYYRAVVGDRTPADLQETYVRGGAGLVAYLEEDDHFSFESYPWPDYFGDAPKARRDGQRHIIPTPLPVPSAPELREVVRGPLDNDRLGTPQPDDLFIGGRALVARFLTALATYPHATLVRETALAELVVEDGVVVGAIVETDGVRRAIRARRGVLLAAGGFEANDELRQKYGVPGVARDTMGPPTNVGAAHQAAIAVGADTDLMGEAWWSPGLTHPDGRSAFALGFTGGIFVDGAGRRFVNESAPYDRLGRAVIDHLTEGGVTPRYWMVYDHKEGSIPPVRATNVSMVDEEQYVAAGLWHTADTLPELAALIGVPADALVATVARFNELVADGYDADFGRGGEAYDRFFSGGEPPLVSIDEGPFHAAAFGISDLGTKGGLRTDTSARVLTADGTPIGGLYAAGNTMAAPSGTTYPGGGNPIGTSMLFSHLAVRHMGTEDAR
In the case of B2, in “purified protein [11]”, the Km came to 37.01 ± 1.8 µM, the kcat came out at 101.2 ± 0.9 s⁻¹ and the kcat/Km worked out at 2.74e+06 M⁻¹ s⁻¹.

B3: KsdD3 (3-ketosteroid-∆^1-dehydrogenase) (Pimelobacter simplex) (protein)
chain: MDWAEEYDVLVAGSGAGGMAGTYTAAREGLSVCLVEAGDKFGGTTAYSGGGGAWFPANPVLLRAGTDDTIEDALEYYRAVVGDRTPADLQETYVRGGAGLVAYLEEDDHFSFESYPWPDYFGDAPKARRDGQRHIIPTPLPVPSAPELREVVRGPLDNDRLGTPQPDDLFIGGRALVARFLTALATYPHATLVRETALAELVVEDGVVVGAIVETDGVRRAIRARRGVLLAAGGFEANDELRQKYGVPGVARDTMGPPTNVGAAHQAAIAVGADTDLMGEAWWSPGLTHPDGRSAFALWFTGGIFVDGAGRRFVNESAPYDRLGRAVIDHLTEGGVTPRYWMVYDHKEGSIPPVRATNVSMVDEEQYVAAGLWHTADTLPELAALIGVPADALVATVARFNELVADGYDADFGRGGEAYDRFFSGGEPPLVSIDEGPFHAAAFGISDLGTKGGLRTDTSARVLTADGTPIGGLYAAGNTMAAPSGTTYPGGGNPIGTSMLFSHLAVRHMGTEDAR
notes: as for B1
As for B3, the Km in “purified protein [3]” turned out to be 50.04 ± 2.7 µM; in the data set “purified protein [4]”, 47.43 ± 1.9 µM; in “purified protein [5]”, 57.12 ± 2.8 µM; in the data set “purified protein [6]” it was 62.31 ± 4.8 µM; in the data set “purified protein [7]”, 228.26 ± 7.1 µM; in the data set “purified protein [8]”, 55.35 ± 3.1 µM. Also, the Km in the data set “purified protein [9]” was 95.08 ± 4.7 µM; in the data set “purified protein [10]”, 42.05 ± 4.3 µM. Also, the kcat turned out to be 59.7 s⁻¹ in “purified protein [3]”; 55.2 ± 3.7 s⁻¹ in “purified protein [5]”; 53.5 ± 4.1 s⁻¹ in “purified protein [6]”; 19.2 ± 4.5 s⁻¹ in “purified protein [7]”; 45.3 ± 3.5 s⁻¹ in “purified protein [9]”. Besides, the kcat/Km in “purified protein [3]” stood at 1.19e+06 M⁻¹ s⁻¹; in the data set “purified protein [4]”, 1.29e+06 M⁻¹ s⁻¹; in “purified protein [5]”, 970000 M⁻¹ s⁻¹; in “purified protein [6]” it was 860000 M⁻¹ s⁻¹; in the data set “purified protein [7]”, 80000 M⁻¹ s⁻¹; in “purified protein [8]” it was 1.03e+06 M⁻¹ s⁻¹. The results for the kcat/Km in the data set “purified protein [9]” and in “purified protein [10]” were 480000 M⁻¹ s⁻¹ and 1.89e+06 M⁻¹ s⁻¹, respectively.
